# IntAct's records for PubMed 36931259
# B1: 14-3-3 protein sigma (Homo sapiens), P31947 (parent)
# chain: MERASLIQKAKLAEQAERYEDMAAFMKGAVEKGEELSCEERNLLSVAYKNVVGGQRAAWRVLSSIEQKSNEEGSEEKGPEVREYREKVETELQGVCDTVLGLLDSHLIKEAGDAESRVFYLKMKGDYYRYLAEVATGDDKKRIIDSARSAYQEAMDISKKEMPPTNPIRLGLALNFSVFHYEIANSPEEAISLAKTTFDEAMADLHTLSEDSYKDSTLIMQLLRDNLTLWTADNAGEEGGEAPQEPQS
# partner: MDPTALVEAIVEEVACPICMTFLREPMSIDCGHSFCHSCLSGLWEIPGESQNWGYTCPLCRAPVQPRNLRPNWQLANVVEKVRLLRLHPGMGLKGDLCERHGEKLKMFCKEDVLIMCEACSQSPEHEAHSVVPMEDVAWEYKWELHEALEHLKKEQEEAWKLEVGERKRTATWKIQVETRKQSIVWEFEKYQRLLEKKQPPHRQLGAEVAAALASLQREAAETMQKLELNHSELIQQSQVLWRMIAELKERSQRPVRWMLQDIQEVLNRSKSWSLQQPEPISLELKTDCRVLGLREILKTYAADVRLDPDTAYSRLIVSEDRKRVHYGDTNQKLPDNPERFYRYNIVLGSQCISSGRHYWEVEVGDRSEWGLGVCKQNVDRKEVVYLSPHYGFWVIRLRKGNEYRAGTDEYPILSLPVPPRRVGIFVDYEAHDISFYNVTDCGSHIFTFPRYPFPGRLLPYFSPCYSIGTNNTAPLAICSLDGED
# B2: 14-3-3 protein sigma (Homo sapiens), P31947 (parent)
# chain: B1 chain
# partner: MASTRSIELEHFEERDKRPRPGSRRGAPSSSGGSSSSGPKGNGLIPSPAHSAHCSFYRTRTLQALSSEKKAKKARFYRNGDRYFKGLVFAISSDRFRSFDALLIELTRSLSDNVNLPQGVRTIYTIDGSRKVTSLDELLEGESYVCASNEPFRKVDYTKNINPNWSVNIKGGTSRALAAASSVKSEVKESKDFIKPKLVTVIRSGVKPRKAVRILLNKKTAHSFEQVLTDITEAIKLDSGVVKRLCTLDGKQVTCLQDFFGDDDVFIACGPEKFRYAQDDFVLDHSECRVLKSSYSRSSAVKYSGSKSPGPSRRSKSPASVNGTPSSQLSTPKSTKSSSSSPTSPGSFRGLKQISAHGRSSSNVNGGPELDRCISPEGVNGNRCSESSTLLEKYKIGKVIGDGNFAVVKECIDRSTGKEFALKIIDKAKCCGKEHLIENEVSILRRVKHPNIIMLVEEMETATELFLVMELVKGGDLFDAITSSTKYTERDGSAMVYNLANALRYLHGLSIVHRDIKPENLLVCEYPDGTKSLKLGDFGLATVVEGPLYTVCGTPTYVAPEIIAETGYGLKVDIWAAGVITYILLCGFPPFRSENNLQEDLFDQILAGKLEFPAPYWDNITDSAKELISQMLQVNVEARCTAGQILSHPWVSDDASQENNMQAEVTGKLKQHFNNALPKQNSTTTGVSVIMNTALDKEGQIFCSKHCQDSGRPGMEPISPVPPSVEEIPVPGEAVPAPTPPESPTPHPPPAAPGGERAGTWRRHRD
# B3: 14-3-3 protein sigma (Homo sapiens), P31947 (parent)
# chain: B1 chain
# partner: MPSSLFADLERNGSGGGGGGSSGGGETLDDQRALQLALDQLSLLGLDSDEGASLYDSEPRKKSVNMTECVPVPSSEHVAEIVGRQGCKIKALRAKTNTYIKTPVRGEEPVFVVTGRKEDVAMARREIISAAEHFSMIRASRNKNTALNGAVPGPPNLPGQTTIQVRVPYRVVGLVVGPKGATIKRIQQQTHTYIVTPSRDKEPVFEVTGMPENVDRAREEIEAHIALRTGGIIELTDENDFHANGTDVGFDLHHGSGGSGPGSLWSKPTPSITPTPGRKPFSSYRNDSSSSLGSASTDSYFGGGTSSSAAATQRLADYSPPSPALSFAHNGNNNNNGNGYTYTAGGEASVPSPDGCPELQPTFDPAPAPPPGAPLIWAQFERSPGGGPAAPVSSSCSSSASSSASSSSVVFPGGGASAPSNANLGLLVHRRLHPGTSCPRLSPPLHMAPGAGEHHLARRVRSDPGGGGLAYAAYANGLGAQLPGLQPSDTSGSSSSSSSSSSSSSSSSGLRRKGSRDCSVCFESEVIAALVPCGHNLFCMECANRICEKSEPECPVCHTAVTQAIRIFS
# B4: 14-3-3 protein sigma (Homo sapiens), P31947 (parent)
# chain: B1 chain
# partner: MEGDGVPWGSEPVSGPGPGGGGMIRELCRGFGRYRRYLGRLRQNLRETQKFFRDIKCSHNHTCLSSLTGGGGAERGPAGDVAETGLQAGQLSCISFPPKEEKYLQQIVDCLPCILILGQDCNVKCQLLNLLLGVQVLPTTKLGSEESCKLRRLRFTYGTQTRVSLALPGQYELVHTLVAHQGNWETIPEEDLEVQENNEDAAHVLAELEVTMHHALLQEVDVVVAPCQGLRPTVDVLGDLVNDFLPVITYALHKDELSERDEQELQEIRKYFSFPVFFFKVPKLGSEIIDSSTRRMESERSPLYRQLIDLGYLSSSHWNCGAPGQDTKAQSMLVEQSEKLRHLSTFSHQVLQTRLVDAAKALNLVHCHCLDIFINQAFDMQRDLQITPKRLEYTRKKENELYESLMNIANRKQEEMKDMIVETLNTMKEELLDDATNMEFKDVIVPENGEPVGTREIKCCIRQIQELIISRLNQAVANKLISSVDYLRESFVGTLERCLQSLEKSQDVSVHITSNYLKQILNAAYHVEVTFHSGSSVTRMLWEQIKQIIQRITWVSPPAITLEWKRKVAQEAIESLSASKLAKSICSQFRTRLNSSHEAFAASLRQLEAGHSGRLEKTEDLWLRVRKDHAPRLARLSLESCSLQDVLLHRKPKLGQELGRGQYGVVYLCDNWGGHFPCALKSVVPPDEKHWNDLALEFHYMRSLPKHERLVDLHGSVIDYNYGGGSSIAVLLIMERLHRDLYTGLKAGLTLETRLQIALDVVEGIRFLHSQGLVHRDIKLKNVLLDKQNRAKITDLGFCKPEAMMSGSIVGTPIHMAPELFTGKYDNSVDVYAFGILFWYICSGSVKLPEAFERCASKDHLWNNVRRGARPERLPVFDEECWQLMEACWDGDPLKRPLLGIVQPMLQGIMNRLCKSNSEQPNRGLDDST
# B5: 14-3-3 protein sigma (Homo sapiens), P31947 (parent)
# chain: B1 chain
# partner: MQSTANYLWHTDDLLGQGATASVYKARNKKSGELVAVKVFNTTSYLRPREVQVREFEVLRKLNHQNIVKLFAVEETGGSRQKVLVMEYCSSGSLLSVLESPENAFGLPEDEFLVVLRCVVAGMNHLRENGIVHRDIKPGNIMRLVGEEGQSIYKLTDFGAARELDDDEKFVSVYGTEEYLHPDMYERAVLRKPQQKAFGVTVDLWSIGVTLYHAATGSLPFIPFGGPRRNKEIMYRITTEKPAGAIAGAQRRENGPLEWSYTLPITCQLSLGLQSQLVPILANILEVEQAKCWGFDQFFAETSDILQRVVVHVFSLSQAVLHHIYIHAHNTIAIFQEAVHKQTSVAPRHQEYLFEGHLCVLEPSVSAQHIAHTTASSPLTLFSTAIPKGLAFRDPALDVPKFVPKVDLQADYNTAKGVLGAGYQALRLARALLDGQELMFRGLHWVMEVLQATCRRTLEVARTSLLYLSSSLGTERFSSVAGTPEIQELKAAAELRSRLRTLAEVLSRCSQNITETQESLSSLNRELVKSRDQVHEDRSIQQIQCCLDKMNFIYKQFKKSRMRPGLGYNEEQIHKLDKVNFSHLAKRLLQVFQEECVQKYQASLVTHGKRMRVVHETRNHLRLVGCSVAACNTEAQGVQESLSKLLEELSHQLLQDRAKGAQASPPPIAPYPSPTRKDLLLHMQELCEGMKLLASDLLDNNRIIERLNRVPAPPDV
# B6: 14-3-3 protein sigma (Homo sapiens), P31947 (parent)
# chain: B1 chain
# partner: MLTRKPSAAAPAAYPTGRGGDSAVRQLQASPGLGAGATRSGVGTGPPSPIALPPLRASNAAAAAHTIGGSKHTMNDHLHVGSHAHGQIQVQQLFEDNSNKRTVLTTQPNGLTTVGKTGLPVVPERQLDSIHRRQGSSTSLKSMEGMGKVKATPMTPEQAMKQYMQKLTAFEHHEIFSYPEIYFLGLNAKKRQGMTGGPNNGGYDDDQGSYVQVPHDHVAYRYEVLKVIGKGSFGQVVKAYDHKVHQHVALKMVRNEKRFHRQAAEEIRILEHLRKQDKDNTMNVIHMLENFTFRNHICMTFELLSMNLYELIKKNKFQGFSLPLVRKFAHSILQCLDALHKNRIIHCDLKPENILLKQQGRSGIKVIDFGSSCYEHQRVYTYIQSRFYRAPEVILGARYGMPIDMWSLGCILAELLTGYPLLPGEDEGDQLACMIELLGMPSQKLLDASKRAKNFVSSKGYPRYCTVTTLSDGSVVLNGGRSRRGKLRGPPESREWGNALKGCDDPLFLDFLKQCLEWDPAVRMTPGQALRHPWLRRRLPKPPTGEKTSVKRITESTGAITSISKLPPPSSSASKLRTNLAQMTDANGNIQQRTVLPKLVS
# Variants of: B1
# Conditions: with tri68_human TRIM68, Q6AZZ1
row,effect of a mutation on the interaction,Variant
1,decreasing interaction strength,K49E;R56E;V178D

# Variants of: B2
# Conditions: with dclk2_human DCLK2, Q8N568
row,effect of a mutation on the interaction,Variant
1,decreasing interaction strength,K49E;R56E;V178D

# Variants of: B3
# Conditions: with mex3b_human MEX3B
row,effect of a mutation on the interaction,Variant
1,decreasing interaction strength,K49E;R56E;V178D

# Variants of: B4
# Conditions: with dusty_human DSTYK
row,effect of a mutation on the interaction,Variant
1,decreasing interaction strength,K49E;R56E;V178D

# Variants of: B5
# Conditions: with ikke_human IKBKE
row,effect of a mutation on the interaction,Variant
1,decreasing interaction strength,K49E;R56E;V178D

# Variants of: B6
# Conditions: with dyrk2_human DYRK2, Q92630
row,effect of a mutation on the interaction,Variant
1,decreasing interaction strength,K49E;R56E;V178D
